Laboratory results taken from patent US20250163155A1 (Bristol-Myers Squibb, published 2025).

Target: T1, cynomolgus LAG-3 (cynomolgus monkey)
T1 construct: whole, on cells; also called cynomolgus LAG-3 on transfected CHO cells
Assay: flow cytometry on transfected CHO cells and activated cynomolgus T cells

EC50: 21.5 to 34.3 nM
B1: BMS-986016 (antibody, human IgG4 S228P, kappa, V domains shown)
VH: QVQLQQWGAGLLKPSETLSLTCAVYGGSFSDYYWNWIRQPPGKGLEWIGEINHRGSTNSNPSLKSRVTLSLDTSKNQFSLKLRSVTAADTAVYYCAFGYSDYEYNWFDPWGQGTLVTVSS
VL: EIVLTQSPATLSLSPGERATLSCRASQSISSYLAWYQQKPGQAPRLLIYDASNRATGIPARFSGSGSGTDFTLTISSLEPEDFAVYYCQQRSNWPLTFGQGTNLEIKR
notes: also called anti-LAG-3 antibody
